This assay addresses GST-RPGR^1–15 H98Q (UniProt Q92834). The assay is described as follows: pull-down.

The values below come from article PMC2928130.

Sequence of UniProt Q92834 (Q92834 whole entry H98Q): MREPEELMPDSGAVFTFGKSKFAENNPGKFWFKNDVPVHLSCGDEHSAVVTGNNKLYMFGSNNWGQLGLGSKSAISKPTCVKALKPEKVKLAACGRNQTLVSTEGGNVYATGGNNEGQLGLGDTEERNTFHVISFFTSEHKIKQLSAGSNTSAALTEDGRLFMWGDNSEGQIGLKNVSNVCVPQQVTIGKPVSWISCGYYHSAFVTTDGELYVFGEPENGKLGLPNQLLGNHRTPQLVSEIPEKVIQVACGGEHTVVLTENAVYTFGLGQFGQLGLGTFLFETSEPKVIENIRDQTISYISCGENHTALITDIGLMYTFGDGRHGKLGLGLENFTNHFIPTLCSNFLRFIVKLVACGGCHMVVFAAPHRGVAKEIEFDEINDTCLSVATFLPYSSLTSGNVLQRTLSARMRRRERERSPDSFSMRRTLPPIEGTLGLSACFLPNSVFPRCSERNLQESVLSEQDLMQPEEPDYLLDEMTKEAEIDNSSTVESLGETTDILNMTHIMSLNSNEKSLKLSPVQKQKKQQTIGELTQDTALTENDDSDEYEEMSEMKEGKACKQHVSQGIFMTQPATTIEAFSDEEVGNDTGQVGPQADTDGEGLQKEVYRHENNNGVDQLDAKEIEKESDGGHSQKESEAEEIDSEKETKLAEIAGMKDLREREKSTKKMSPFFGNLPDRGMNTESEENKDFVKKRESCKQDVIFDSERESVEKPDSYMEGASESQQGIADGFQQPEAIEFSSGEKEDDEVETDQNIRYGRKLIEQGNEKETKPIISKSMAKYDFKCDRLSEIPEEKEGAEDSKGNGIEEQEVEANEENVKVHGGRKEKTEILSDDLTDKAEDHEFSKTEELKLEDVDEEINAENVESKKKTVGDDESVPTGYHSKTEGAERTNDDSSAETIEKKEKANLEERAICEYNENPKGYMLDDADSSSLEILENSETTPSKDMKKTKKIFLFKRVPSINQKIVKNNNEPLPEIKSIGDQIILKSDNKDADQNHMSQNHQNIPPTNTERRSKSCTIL

The substance “^35S-labeled RAB8A-T22N (GDP-locked form), in vitro translated (from UniProt P61006 1-207) (natural protein)” displayed a fold less association than WT-RPGR of 5 fold.
